Patent publication US20240092891A1
Like-named read-outs stand apart in the source and are kept apart here.

Columns and labels:
Assay in all cases: flow cytometry on human CLDN18.1-HEK293 cells, antibody at 100 µg/mL
human CLDN18.1 (human) [1] = molecular target: human CLDN18.1 (human) (UniProt P56856)
human CLDN18.1 (human) [2] = molecular target: human CLDN18.1 (human) (UniProt P56856); remark: listed apart in the source
human CLDN18.1 (human) [3] = molecular target: human CLDN18.1 (human) (UniProt P56856); remark: listed apart in the source

human CLDN18.1 (human), sequence (P56856 whole entry): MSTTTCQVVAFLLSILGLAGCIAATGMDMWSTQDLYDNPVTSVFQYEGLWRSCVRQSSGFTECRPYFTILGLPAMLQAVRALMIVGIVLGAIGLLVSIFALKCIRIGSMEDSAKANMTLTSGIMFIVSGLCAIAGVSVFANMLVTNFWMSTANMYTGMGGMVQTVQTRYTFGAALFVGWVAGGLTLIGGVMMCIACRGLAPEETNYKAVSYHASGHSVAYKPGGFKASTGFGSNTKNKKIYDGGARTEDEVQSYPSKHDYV

positive rate of cell binding (human CLDN18.1 (human) [1]): 0.067%
positive rate of cell binding (human CLDN18.1 (human) [2]): 0.851%
positive rate of cell binding (human CLDN18.1 (human) [3]): 0.049%
Substance: irrelevant control hIgG1 (antibody)
